Reference: patent publication US20240245796A1, “LINKERS, DRUG LINKERS AND CONJUGATES THEREOF AND METHODS OF USING THE SAME” (ProfoundBio US Co., priority 2021, published 2024)

Test system: Hela cells
Test: Flow cytometry binding to Hela cells
Type: cell-based
Conditions: transfection supernatant, FIG. 6
Method: The binding activity of the antibodies to Hela cells (ATCC® CCL-2, provided by COBIOER) and to RPTEC/TERT1 cells (ATCC® CRL-4031, provided by COBIOER) was tested by flow cytometry using the transfection supernatants. Briefly, target cells were digested with 0.02% EDTA-2Na, centrifuged at 1500 rpm for 3 mins, and resuspended with PBS. After counting, the cells were added to a 1.5 ml centrifuge tube with 1×10^6 cells per tube, centrifuged at 1500 rpm for 5 minutes, and the supernatant was discarded. Then all the operations were carried out on an ice bath. 100 μL of transfection supernatant was added to each 1.5 ml centrifuge tube. Blank cells, blank cells plus secondary antibody, medium and HEK293 supernatant were set up as the controls. The reaction was performed on an ice bath for 1 hour. Then the cells were pelleted and washed twice with PBS. The secondary antibody, goat anti-Human IgG (PE, abcam, ab98596), was diluted (1:200) and added using 100 μL per tube. The reaction was performed on an ice bath for 1 hour in the dark. The cells were pelleted again and washed twice with PBS, resuspended in 300 μL PBS, and FL2 fluorescence readings were measured by cytometry. The results were analyzed by FlowJoTM10 software.
Anti-FOLR1 antibody binding to Hela and RPTEC/TERT1 cells was tested by FACS. The study was carried out as described above. […]

B1: F40: anti-FOLR1 antibody clone; "Clone F40 has a different HCDRs and LCDRs, and with different HFR and LFR" (antibody, V domains shown)
VH: EVQLLESGGGVVQPGRSLRLSCAASGFTFSSYAMHWVRQAPGKGLEWVAVISYDGSNKYYADSVKGRFIISRDNSKNTVYLQMNSLRAEDTAVYYCARPTYVFTYTGSSFDYWGQGTQVTVSS
VL: DIQVTQSPSSLSASLGDTVSITCRASRGLTDSVAWYQQKPGQAPKLLIYAASTLQSGVPSRFGGSGSGSYFTLTITSLQPEDVATYYCQNYKSAPWTFGQGTKVEIK
**Q.** B1 was tested. Which Hela cell binding did it give?
**A.** weakly positive
